Assay results from patent US20240058465A1 (SUTRO BIOPHARMA, published 2024).
Positions count from the first letter of the chain named.

B1: SRP2196-B01 (antibody, V domains shown)
VH: EVQLVESGGGLVQPGGSLRLSCAASGFNITGYYIHWVRQAPGKGLEWVGQISPNSGYTYYADSVKGRFTISADTSKNTTYLQMNSLRAEDTAVYYCARDSRRYVRSWDYWGQGTLVTVSS
VL: QAVVTQESALTTSPGETVTLTCRSSTGAVTTSNYANWVQEKPDHLFTGLIGGTNKRAPGVPARFSGSLIGDKAALTITGAQTEDEAIYFCALWYSNLWVFGGGTKLTVL
notes: His/FLAG-tagged IgG1
B2: SRP2196-B04 (antibody, V domains shown)
VH: B1 VH with G31E, Q50Y, Y57A, Y60Q, T79A, S106G
VL: B1 VL
notes: His/FLAG-tagged IgG1
B3: SRP2196-B09 (antibody, V domains shown)
VH: B1 VH with G15E, G31E, Q50Y, Y57S, T79A
VL: B1 VL
notes: His/FLAG-tagged IgG1; also called Antibody 160
B4: SRP2196-B10 (antibody, V domains shown)
VH: B1 VH with Q50S, S52T, N54L, Y57A, Y59S, Y60K, T79A, V104I
VL: B1 VL
notes: His/FLAG-tagged IgG1; also called Antibody 167
B5: SRP2196-B03 (antibody, V domains shown)
VH: B1 VH with V12A, Q50Y, Y57A, Y59H, T79A, S106P, W107F
VL: B1 VL
notes: His/FLAG-tagged IgG1
B6: SRP2196-B02 (antibody, V domains shown)
VH: B1 VH with G31Q, Q50Y, Y57Q, Y60D, T79A
VL: B1 VL
notes: His/FLAG-tagged IgG1
B7: SRP2196-C02 (antibody, V domains shown)
VH: B1 VH with Y33H, Q50F, Y57W, Y60S, T79A, S106P, W107F
VL: B1 VL
notes: His/FLAG-tagged IgG1
B8: SRP2196-B06 (antibody, V domains shown)
VH: B1 VH with Y57S, Y60S, T79A, R105L
VL: B1 VL
notes: His/FLAG-tagged IgG1
B9: SRP2196-C03 (antibody, V domains shown)
VH: B1 VH with Y57S, Y60S, T79A, N84S, R105L
VL: B1 VL
notes: His/FLAG-tagged IgG1
B10: SRP2196-C04 (antibody, V domains shown)
VH: B1 VH with Q50F, S52A, N54L, Y57S, Y59H, Y60N, T79A, D99E, R105N, S106P
VL: B1 VL
notes: His/FLAG-tagged IgG1; also called Antibody 162
B11: SRP2196-B11 (antibody, V domains shown)
VH: B1 VH with K43R, T79A, V104I
VL: B1 VL
notes: His/FLAG-tagged IgG1
B12: SRP2196-C01 (antibody, V domains shown)
VH: B1 VH with T30I, Q50S, S52T, N54L, Y57A, Y59S, Y60K, T79A, V104I
VL: B1 VL
notes: His/FLAG-tagged IgG1

molecular target: T1, human ROR1 (hROR1) (human, UniProt Q01973 30-937); experiment: flow cytometry, HCT116-hROR1 cells
T1 construct: On HCT116-hROR1 transfectants, Mino cells or Ntera-2 cells, as the assay of each row says; also called receptor tyrosine kinase like orphan receptor 1
Experimental: A mix of ROR1 positive and negative cells was prepared as follows. Ror1 negative cells were washed 2× in PBS then incubated in PBS containing 1 nM CellTrace™ Oregon Green488® (Life Technologies) at 37° C. for 30 minutes. Cells were then washed 2× with RPMI w/10% fetal calf serum (or FCS), washed 2× with FACS buffer (PBS+0.5% BSA), suspended thoroughly in ice-cold FACS buffer at a final concentration of 4×10^6 cells/ml and kept on ice. ROR1 positive cells were washed 2× in PBS and suspended with ice-cold FACS buffer at 4×10^6 cells/ml. ROR1 positive and negative cells were then mixed to obtain a 1-1 cell suspension and seeded at 50 μl per well on 96 well polypropylene plates. 50 μl of 6-12 point dilutions of anti-ROR1 variants starting from concentrations of ˜100-200 nM antibody was dispensed using BioMekFX (Beckman Coulter) into each well. Cells were then incubated on ice for 1 hr, washed with FACS buffer and incubated for 1 hr on ice with 50 μl FACS buffer containing 2.5 μg/ml Alexa647-conjugated Goat Anti-Human IgG dispensed using BioMekFX (Beckman Coulter). Cells were then washed 2× with FACS buffer and fixed for 10 minutes in 200 μl PBS with 2% PFA prior to fluorescence detection. Samples were acquired using a Beckton Dickinson LSRII FACS. Mean Fluorescence Intensity of ROR1 antibody binding was analyzed using FlowJo® software (Tree Star, Inc.).

| Bmax (MFI) | Kd [nM] | Binder |
| --- | --- | --- |
| 15300 | 0.3 | B1 |
| 14400 | 0.5 | B2 |
| 15000 | 0.6 | B3 |
| 14700 | 0.3 | B4 |
| 15600 | 0.6 | B5 |
| 14900 | 0.3 | B6 |
| 15300 | 0.6 | B7 |
| 14800 | 0.4 | B8 |
| 15000 | 0.4 | B9 |
| 13800 | 0.5 | B10 |
| 14700 | 0.2 | B11 |
| 15700 | 0.3 | B12 |

molecular target: T2, human ROR1 Frizzled domain (hROR1-Fz) (human, UniProt Q01973 165-305); experiment: SPR Biacore, IgG on anti-Fc, ROR1-Fz analyte
T2 construct: Acro Biosystems, made in HEK293
Experimental: Anti-Fc polyclonal antibodies were immobilized onto a CMS chip (GE Life Sciences) using amine coupling chemistry (from Amine Coupling Kit, GE Life Sciences). The immobilization steps were carried out at a flow rate of 25 μL/min in 1×HBS-EP+buffer (GE Life Sciences; 10× Stock diluted before use). The sensor surfaces were activated for 7 min with a mixture of NHS (0.05 M) and EDC (0.2 M). The Anti-Fc antibodies were injected over all 4 flow cells at a concentration of 25 ug/ml in 10 mM sodium acetate, pH 4.5, for 7 min. Ethanolamine (1 M, pH 8.5) was injected for 7 min to block any remaining activated groups.
Off-rate and kinetic binding experiments were performed at 25° C. using 1×HBS-EP+buffer. Test and control antibodies were injected over the anti-Fc surface at concentrations of 5-10 μg/mL for 12 seconds at a flow rate of 10 μL/min on flow cells 2, 3 and 4, followed by a buffer wash for 30 seconds at the same flow rate. […] After capturing ligand (antibody) on the anti-Fc surface, the analyte (hROR1, Fz or Kr domains, Acro Biosystems, Delaware) was bound for 180 seconds, followed by a 600 second dissociation phase at a flow rate of 50 μL/min. Between each ligand capture and analyte binding cycle, regeneration was carried out using 2 injections of 10 mM Glycine pH 2.0 for 30 seconds at 30 μL/min, followed by a 30 second buffer wash step.

| Kd [nM] | koff [s⁻¹] | kon [M⁻¹ s⁻¹] | Binder |
| --- | --- | --- | --- |
| 3.06 | 0.000401 | 131000 | B1 |
| 2.78 | 0.000352 | 127000 | B2 |
| 3.28 | 0.000427 | 130000 | B3 |
| 2.61 | 0.000334 | 128000 | B4 |
| 7.64 | 0.000945 | 124000 | B5 |
| 1.39 | 0.000227 | 163000 | B6 |
| 3.02 | 0.00036 | 119000 | B7 |
| 2.98 | 0.000423 | 142000 | B8 |
| 3.23 | 0.000461 | 143000 | B9 |
| 5.35 | 0.000704 | 131000 | B10 |
| 4.36 | 0.000597 | 137000 | B11 |
| 3.66 | 0.000457 | 125000 | B12 |
